For one experiment, the target named is T1, TmrAB (Thermus thermophilus, UniProt Q72J04+Q72J05, Q72J05:E523Q).
T1 construct: gene TT_C0976
Put plainly: biochemical.

For experiment [1], the target named is Thermus thermophilus multidrug resistance transport complex TmrAB, wildtype (Thermus thermophilus). The experiment is described as follows: radioligand binding; scintillation proximity assay (SPA), equilibrium; His-tagged TmrAB (0.2 µM) in lipid nanodiscs held on copper-chelated SPA beads; R9LQK traced with 3H-R9L; no nucleotide (IF conformation); 20 °C; background with 200 mM imidazole; one-site binding model. For orientation: In a scintillation proximity assay essentially only radioactivity close to the scintillant gives light.

The target of experiment [2] is TmrA^E523QB (Thermus thermophilus). The experiment is described as follows: radioligand binding; SPA time course at 20 °C; TmrA^EQB (0.2 µM) first converted to the OF state with Mg2+-ATP (5 min, 45 °C), excess ATP removed by rapid gel filtration, then R9LQK (10 µM, traced with 3H-R9L); mono-exponential fit; apparent. A general note: SEC sorts molecules by how far they enter the pores of the column.

Experiment [3] shares this target.
For experiment [4] the target is unchanged. The source holds these as a separate data set.
The target is the same in experiment [5]. As to conditions: scale: translocated peptides per TmrA^EQB complex.
The target of experiment [6] is Thermus thermophilus multidrug resistance transport complex TmrAB, wildtype (Thermus thermophilus).

Where no end group is shown, it is not given here. fluorescein = fluorescein (from 5-iodoacetamide fluorescein) label on the Cys side chain

By EC50 is commonly meant the concentration needed to bring the measured effect to its halfway point. Take `Nc1ncnc2c1ncn2[C@@H]1O[C@H](COP(=O)(O)OP(=O)(O)OP(=O)(O)O)[C@@H](O)[C@H]1O` [ATP]: the EC50 at TmrAB worked out at 30 µM.

Usually Kd stands for a measure of binding affinity in units of concentration. As for RRYQKSTEL [R9LQK peptide (…)], the Kd in experiment [1] amounted to 70 µM. Besides, in experiment [2], the apparent association rate kon (recovery of peptide binding along the OF-to-IF return) worked out at 0.03 min⁻¹ and the half-life of the recovery of peptide binding came out at 24 min.

In experiment [3], RRYC(fluorescein)KSTEL (also: fluorescein attached via 5-iodoacetamide fluorescein) [C4F peptide (RRYC^fluoresceinKSTEL)] came in with a C4F peptides transported per liposome in the burst phase (0–5 min at 45 °C) of a time course; single-liposome flow cytometry (30 µM C4F, 3 mM Mg2+-ATP) (peptides per liposome) of 30. Also, in experiment [4], the C4F peptides translocated per correctly oriented TmrA^EQB upon each IF-to-OF transition; single-liposome flow cytometry (30 µM C4F, 3 mM Mg2+-ATP, two consecutive switches) (peptides per correctly oriented TmrA^EQB) is 1.3. Further, in experiment [5], the translocated C4F peptides per TmrA^EQB complex; single-turnover transport into proteoliposomes (50 µM C4F, 3 mM Mg2+-ATP, 5 min at 45 °C), fluorescence read-out worked out at 0.5. The molecule further gave a transported C4F peptides with ATP against the background control with ADP; single-liposome flow cytometry (30 µM C4F, 3 mM Mg2+-ATP or Mg2+-ADP, 5 min at 45 °C) in experiment [6] of 100 fold.

The values are drawn from paper PMC7205462 (eLife, 2020).
